{"source": "patent US20260109776A1", "about": "(Amgen, published 2026)", "binders": {"B1": {"name": "6032-2 (bispecific antibody)", "heavy": "not shown", "light": "DIQMTQSPSSVSASVGDRVTITCRASQDISRWLAWYQQKPGKAPKLLISAASRLQSGVPSRFSGSGSGTDFTLTISSLQPEDFAIYYCQQAKSFPRTFGQGTKVEIKRTVAAPSVFIFPPSDEQLKSGTASVVCLLNNFYPREAKVQWKVDNALQSGNSQESVTEQDSKDSTYSLSSTLTLSKADYEKHKVYACEVTHQGLSSPVTKSFNRGEC", "notes": "IgG-scFv: IgG (MSLN) 6F4, scFv (CD40) 29H10"}}, "key": {"[1]": {"target": "human CD40 (human, UniProt P25942 21-277)", "test": "cell-based or functional assay"}, "[2]": {"target": "T1, cynoCD40(1-193) (cynomolgus monkey, UniProt P25942 21-193 (human entry))", "T1 construct": "also called soluble cynomolgus monkey CD40", "T1 chain": "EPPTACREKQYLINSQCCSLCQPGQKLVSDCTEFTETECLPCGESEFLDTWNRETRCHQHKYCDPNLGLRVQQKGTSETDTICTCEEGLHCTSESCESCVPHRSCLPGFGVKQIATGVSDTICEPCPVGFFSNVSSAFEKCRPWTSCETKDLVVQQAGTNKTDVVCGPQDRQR", "test": "Octet", "method": "(§1) A panel of mesothelin×CD40 bispecific antibodies were generated in the IgG-scFv format (Table 13) and evaluated for binding to soluble forms of human and cynomolgus monkey CD40 and human and cynomolgus monkey mesothelin using the Octet assay (Table 14). Association rate (Kon), disassociation rate (Kdis), and equilibrium binding constant (KD) were calculated. […] These bispecific antibodies were next evaluated for their ability to induce mesothelin-dependent activation of human B cells. CHO cells expressing human mesothelin were seeded into a 96 well plate. The next day varying concentrations of the mesothelin×CD40 IgG-scFv antibodies were added to the wells along with purified human B cells and the plates were incubated for an additional 48 hours. Upregulation of CD86, a marker of CD40-mediated B cell activation, was quantified on B cells by flow cytometry."}, "[3]": {"target": "T2, huMSLN(296-598) (human, UniProt Q13421 296-598)", "T2 construct": "also called soluble human mesothelin", "T2 sequence (Q13421 other isoform, or with tags, fused parts or gaps)": "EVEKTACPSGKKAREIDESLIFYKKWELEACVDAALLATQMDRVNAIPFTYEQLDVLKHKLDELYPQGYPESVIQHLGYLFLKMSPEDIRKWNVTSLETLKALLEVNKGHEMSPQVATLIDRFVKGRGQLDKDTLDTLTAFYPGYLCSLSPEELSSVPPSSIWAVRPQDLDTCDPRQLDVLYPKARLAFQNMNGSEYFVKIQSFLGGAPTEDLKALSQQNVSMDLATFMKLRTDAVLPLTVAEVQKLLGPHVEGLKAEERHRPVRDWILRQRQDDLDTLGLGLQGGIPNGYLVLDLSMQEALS", "test": "Octet", "method": "as §1"}, "[4]": {"target": "T3, cynoMSLN(296-598) (cynomolgus monkey)", "T3 chain": "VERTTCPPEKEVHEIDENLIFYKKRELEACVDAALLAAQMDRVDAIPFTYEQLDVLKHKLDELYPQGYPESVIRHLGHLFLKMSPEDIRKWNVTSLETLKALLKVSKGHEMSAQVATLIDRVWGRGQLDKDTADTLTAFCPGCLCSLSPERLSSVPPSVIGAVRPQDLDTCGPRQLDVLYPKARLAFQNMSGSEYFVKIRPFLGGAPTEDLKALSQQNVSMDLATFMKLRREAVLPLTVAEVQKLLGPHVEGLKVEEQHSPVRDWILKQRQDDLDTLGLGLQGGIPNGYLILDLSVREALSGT", "test": "Octet", "method": "as §1"}, "[5]": {"target": "T4, huCD40(1-193) (human, UniProt P25942 21-193)", "T4 construct": "also called soluble human CD40", "test": "Octet", "method": "as §1"}}, "data": [{"binder": "B1", "values": [{"measurement": "EC50 (nM), CD86 upregulation on human B cells with huMSLN-CHO cells", "setting": "[1]", "result": 0.00935, "unit": "nM"}, {"measurement": "Kd", "setting": "[2]", "result": 1.7, "unit": "nM"}, {"measurement": "koff", "setting": "[2]", "result": 0.000407, "unit": "s⁻¹"}, {"measurement": "kon", "setting": "[2]", "result": 238000, "unit": "M⁻¹ s⁻¹"}, {"measurement": "Kd", "setting": "[3]", "result": 0.4, "unit": "nM"}, {"measurement": "koff", "setting": "[3]", "result": 0.000306, "unit": "s⁻¹"}, {"measurement": "kon", "setting": "[3]", "result": 692000, "unit": "M⁻¹ s⁻¹"}, {"measurement": "Kd", "setting": "[4]", "result": 5.8, "unit": "nM"}, {"measurement": "koff", "setting": "[4]", "result": 0.00199, "unit": "s⁻¹"}, {"measurement": "kon", "setting": "[4]", "result": 345000, "unit": "M⁻¹ s⁻¹"}, {"measurement": "Kd", "setting": "[5]", "result": 2, "unit": "nM"}, {"measurement": "koff", "setting": "[5]", "result": 0.000407, "unit": "s⁻¹"}, {"measurement": "kon", "setting": "[5]", "result": 204000, "unit": "M⁻¹ s⁻¹"}]}]}
